One molecule from patent publication US20170226213A1 (Daiichi Sankyo, published 2017) can be followed below.

Assay [1] concerns the target T1, cynomolgus monkey FGFR4 on transfected Hek293 cells (cynomolgus monkey).
T1 construct: whole, on cells
The assay is described as follows: flow cytometry titration on transfected Hek293 cells. As to the method: Hek293 cells were obtained from CLS (Cell Lines Service, Eppelheim; Germany) and cultured in DMEM containing 10%FBS under standard conditions at 37° C. and 5% CO2. On Day 0, cells were seeded at 4×10⁵ cells/10 cm dish. After 24 h, cells were transfected with plasmids coding for FGFR4 from rat, mouse, human or cynomolgus monkey. Cells were allowed to express the proteins for 48 h and were then dissociated from the dish with 5 mM EDTA in PBS followed by incubation with indicated concentrations of anti-FGFR4 antibody U4-3 or GT-13. Binding was determined using a Phycoerythrin-conjugated anti-human IgG antibody (Jackson Immuno Research Europe). Data was acquired with a BD Accuri C6 flow cytometer (BD Biosciences.) and analyzed using the AccuriC6 software. Antibody titrations experiment (starting concentration 10 μg/ml; 1:3 dilution) allowed calculation of the dissociation constants for the antibodies (see table below).

In assay [2] the target is T2, FGFR4 construct with Ig-like domain 1 (amino acids 22-180) on Hek293 cells (UniProt P22455 22-180).
T2 construct: range 22-180; Expressed on transfected Hek293 cells
T2 sequence (P22455 22-180 limits assumed): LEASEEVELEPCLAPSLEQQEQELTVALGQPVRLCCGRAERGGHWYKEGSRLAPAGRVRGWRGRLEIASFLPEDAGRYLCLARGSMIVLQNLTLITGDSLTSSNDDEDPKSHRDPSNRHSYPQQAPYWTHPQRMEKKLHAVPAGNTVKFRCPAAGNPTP
Briefly: flow cytometry on Hek293 cells transfected with the FGFR4 (D1) construct, PE-conjugated anti-human IgG. How it is done:
Hek293 cells were obtained from CLS and cultured in DMEM containing 10% FBS under standard conditions at 37° C. and 5% CO2. On Day 0, cells were seeded and after 24 h cells were transfected with plasmids coding for FGFR4 containing the indicated domain. Cells were allowed to express the proteins for 48 h and were then dissociated from the dish with 5 mM EDTA in PBS followed by incubation with indicated anti-FGFR4 antibody. Binding was determined using a Phycoerythrin-conjugated anti-human IgG antibody (Jackson Immuno Research Europe). Data was acquired with a BD Accuri C6 flow cytometer (BD Biosciences) and analyzed using the AccuriC6 software.
In general terms: Flow cytometry measures light scatter and fluorescence of single cells or particles in a stream.

B1: human anti-FGFR4 antibody U4-3 (antibody, V domains shown)
VH: EVQLLESGGGLVQPGGSLRLSCAASGFTFSDYYMSWIRQAPGKGLEWVSTISGSGGSTYYADSVKGRFTISRDNSKNTLYLQMNSLRAEDTAVYYCARLTAYGHVDSWGQGTLVTVSS
VL: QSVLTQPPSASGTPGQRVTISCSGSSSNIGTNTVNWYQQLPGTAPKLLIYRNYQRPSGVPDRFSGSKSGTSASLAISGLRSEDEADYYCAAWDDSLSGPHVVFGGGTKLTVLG
By Kd is commonly meant a measure of binding affinity in units of concentration. In the case of B1, the Kd in assay [1] turned out to be 0.32 nM. In addition, the binding result in assay [2] was “no binding”.
